The values below come from the DeepSol protein solubility set.

A short description of this data set: soluble on expression in E. coli; label from the status in PepcDB or PDB records.
Take “MPLMPQPTLMPLLQSPSPQHQHQQQQQHRAIGYPQRTLLPQQKQPQQQQPLAYLTSNFNPQQSSVASFNSSPAFTTISDFDQDFDQDYSNCPSLTASPVSTYSLPAYSSTSQQGSSLSAFDSIPNTTTVPRAAQGAAEPLFNLWADPMQTETWLQPADQLTSKSAGRYGHHRESSLSSLGSAGPASPYSNNTSNPQIAVTDFNDFSGFEDLNYHLVPSKASATLHPSFPGYANSNAVPINGYSRAPAVSKQNNNKSFRQEQSVGSNKPRPAPVASSIMSDSSATPAGEAEVAGRQKNGESQENRDLPDRDQSLPFDDVAINNNAPPKFDRTLTDIMNDELYHPDLVITTSAPAPQQTLTTSNNNFNKVVETANQHLSAMQSPASSNSSPFRQGSPHSATLHDFSSLNMASPQVRLGSAQQMRENSKAVQDAAWQQSLARHNQDMTPKTISPKDALLDYHEPEGESNFPLFPQPDNHGFNSDAMSKALSHQSLDGLPNLGDMSTFNFNFSPSNLDSMPTFNGLQQLPQTLQQYSFVNQPRQPSTVPSLATSRMSSAETGITDSPRSNAVQRPVDTRAEGGTYTCTYHGCPLRFDTPQLLQKHKREGHRQAHGLNSRQPNGMTSTRVDTQAGPHRCERINPSTGKPCNQIFSRPYDLTRHEDTIHNARKKKVRCEICTDEKTFSRADALTRHFRVCHPDVPFNGGKQRKARAGRSG”: the “soluble on expression in E. coli” value is recorded as “not soluble”. Take “MPLSSPDRLAIAVDLGTTTLAASLLDMATGERLAVAGSLNPQREFGADVIARLDAACRSKEARHRMAELVRGAIGRLAGELLESVGRSPEHLVTIAVAGNPAMEHLLLDLPVDALAFPPYRPLFTAGKTVPAVGLGWDLPAEVFLFPLPGGFVGGDTVAFLHGVPGPRSPVPGPRLYLDMGTNGEIALAADGKLLATSAAAGPAFEGGNLSCGMAALPGAISGVTFDGERLLVSTVEGKPATGICGSGVLSAIALLLDQGAIDSTGRLLPPEEIPSSIGNRLTTMGDERAFVLHRDATRTVWLSQEDIRQVQLAKGAIRAGMEVLFDRAGIESGAVGSVVLTGSFGAVLDPHSLKSLGVFTENMVQTTSFVREGALRGVEHALLTSGGLAAVDHLAGTIRVIPLSGTPAFEKHFLQHINFPHTILEHHHHHH”: the “soluble on expression in E. coli” value is on record as “soluble”. Consider “MPLVLDLARPVSEEELRRLSELNPGYQWERSPEGRLWVSPTGGESGRRSLQLAYQLARWNEERGLGVVFDSSTGFKFPDGSILSPDAAFVERGAWEALSEAEREGFPPLAPKAVFEVRSASQDPEELRAKMGIYLRNGVLLGVLVDPYARAVEVFRPGKPPLRLEGVERVSLDPELPGFALSLPPLW”, for which the “soluble on expression in E. coli” value is on record as “soluble”. Take “MPLVSLIIRCYNEEKHIGRLLSGVMQQQGIDYEIIIVDSGSTDATVSIAQRYPIQLISIDPQNFSFGRSLNLGCQQASGEYLVFASAHVYPVYQDWLKQLIAPLQTNPQIALSYGKQRGNNQTQFSEHQIFAQWFPDQAQIPQTTPFCNNANAAIRRDLWQKYPYNEDLTGLEDLDWAKRLMQAGYQIAYVPDAEIIHVHQETPQRVRNRYRREAIALKQIFPEQTFSLGDFVRLTVSNTLSDYYYAWQSQQLMTQLWAIPQFRLMQFWGTYQGYHQNNSLNQQLRQTFYYPRPINTITPNVPSKDALKINYAQSDTQLVPDPSPPSPHQLEHHHHHH”: the “soluble on expression in E. coli” value is recorded as “soluble”. With “MPMNRLISHIERSISIHKCVVVPSLGGFVAELLPACYDRDDNLIYPPKEELRFNAALSLRDGILEDSYARAYGISHRRARVMLDDDVRTLRAELVRAGRVSLEKMGELTLNPEGQISYSHRSEAEEGSGFSYGLAPCSLPRLAESFDEARPFAEREKEALSVGRSDYFYLKIHKRTGMMAAAAVMSAVLLVVPWGQISSSDKFAASFVPTELTAKSVWKDTEARPVQVVTAKPASVATTADSQPIEATASKPAESPNQLSTDVAEGGVPVMHEPVGSKCYYVVVGTFDTKKKAQEFYRMSIDKAIMPNAVVLLSSNKARIYSDRFATADEAQTYIRSMKDKHRLFADAWVYAGR”, the “soluble on expression in E. coli” value is “not soluble”.
